Series [1] deals with T1, GST-OsbZIP46 (Oryza sativa, UniProt Q69TW5 1-324).
T1 sequence: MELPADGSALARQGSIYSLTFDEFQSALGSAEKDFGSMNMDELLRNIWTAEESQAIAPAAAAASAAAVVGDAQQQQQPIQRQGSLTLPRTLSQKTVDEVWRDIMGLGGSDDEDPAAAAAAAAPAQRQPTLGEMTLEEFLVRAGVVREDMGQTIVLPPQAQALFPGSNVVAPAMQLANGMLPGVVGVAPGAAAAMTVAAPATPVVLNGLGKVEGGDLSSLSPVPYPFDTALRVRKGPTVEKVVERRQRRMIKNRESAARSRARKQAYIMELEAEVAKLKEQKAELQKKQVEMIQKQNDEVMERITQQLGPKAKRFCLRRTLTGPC
The experiment in a line: EMSA; LightShift Chemiluminescent EMSA kit, 20 min at room temperature, 5% native polyacrylamide gel; buffer, salt and pH not stated. The conditions noted are these: protein: recombinant; tags: GST (N-terminal, pGEX-6p-1); chain copies: 2.

Series [2] has as its target T1, GST-OsbZIP46. As to the kind of experiment: EMSA; labeled mutant probe; LightShift Chemiluminescent EMSA kit, 20 min at room temperature, 5% native polyacrylamide gel; buffer, salt and pH not stated. The settings on record: protein: recombinant; tags: GST (N-terminal, pGEX-6p-1); chain copies: 2; label: 3' biotin. In general terms: In EMSA bound probe runs differently from free probe, usually more slowly.

Numbering of substitutions follows the chain as printed.

B1: YUC8-Probe (YUC8/REIN7 promoter, P3 G-box) (dsDNA)
DNA 1: GTTGGAAAGCGTATTTTATTCGCAACGTGCGGTTCTTCCAGTTTCTCGGC
DNA 2: GCCGAGAAACTGGAAGAACCGCACGTTGCGAATAAAATACGCTTTCCAAC
Consider B1, for which the binding result in the series with GST-OsbZIP46 [1] is “binds”.

B2: YUC8-Mutant Probe (dsDNA)
DNA 1: B1 DNA 1 with C26A, G27A, T28A, G29A
DNA 2: B1 DNA 2 with C22T, A23T, C24T, G25T
As to B2, the binding result in the series with GST-OsbZIP46 [2] is on record as “no binding”.

For the origin of these results see article PMC10022642, “Abscisic acid promotes auxin biosynthesis to inhibit primary root elongation in rice”.
